Residue numbers refer to the chain shown, from its start.
T1: human CD79B protein on the surface of DoHH2 cells (human, UniProt P40259 29-229)
T1 construct: whole, on cells; endogenous CD79B on a B-cell lymphoma line
T1 sequence (looked up): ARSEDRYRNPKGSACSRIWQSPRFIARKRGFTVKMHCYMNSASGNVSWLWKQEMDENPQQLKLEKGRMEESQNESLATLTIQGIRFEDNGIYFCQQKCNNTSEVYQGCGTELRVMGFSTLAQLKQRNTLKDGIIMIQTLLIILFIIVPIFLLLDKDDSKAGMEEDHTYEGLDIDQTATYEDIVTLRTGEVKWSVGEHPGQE

T2: human CD79B antigen (coating antigen of the ELISA, construct not stated) (human, UniProt P40259 29-159)
T2 sequence (looked up): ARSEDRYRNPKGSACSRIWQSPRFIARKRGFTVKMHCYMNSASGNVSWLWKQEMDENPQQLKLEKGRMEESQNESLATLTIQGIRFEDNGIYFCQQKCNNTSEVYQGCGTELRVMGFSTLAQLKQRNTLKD

T3: fusion protein of human CD79B extracellular domain (ECD) and His tag (human CD79B ECD-His) (human, UniProt P40259 29-159)
T3 construct: also called human CD79B-His; Human CD79B-His protein
T3 sequence: T2 sequence (looked up)

B1: murine hybridoma monoclonal antibody mAb015 (antibody, V domains shown)
VH: QVQLQQSGAELARPGASVKLSCKASGSSFTSYGINWVKQRTGQGLEWIGEIFPRSGNTYYNEKFEGKATLTADKSSSTAYMELRSLTSEDSAVYFCAKGDLGDFDYWGQGTTLTVSS
VL: DFLMTQTPLSLPVRLGDQASISCRSSQSIVHSDGNTYFEWYLQKPGQSPKLLIYKVSNRFSGVPDRFSGSGSGTDFTLKISRVEAEDLGVYYCFQGSHVPWTFGGGTKLEIK
notes: murine monoclonal antibody from hybridoma; also called 83B2G2
B2: murine hybridoma monoclonal antibody mAb017 (antibody, V domains shown)
VH: QVQLQQSGAELARPGASVKLSCKASGYTFTTYGINWVKQRTGQGLEWIGEIYPRSGNIYYNEKFKGKATLTADKSSSTAYMELRSLTSEDSAVYFCARGSDYDGDFAYWGQGTLVTVSA
VL: B1 VL with F2V, R14S, S32H, F38L, K108Q
notes: murine monoclonal antibody from hybridoma; also called 86F11F6
B3: murine hybridoma monoclonal antibody mAb016 (antibody, V domains shown)
VH: QVQLQQSGAELARPGASVKLSCKASGYIFTNYGIIWVKQRTGQGLEWIGDIFPGSGNTYYNENFKGKATLTADKSSSTAYMELRSLTSEDSAVYFCSRGELGDFDYWGQGTTLTVSS
VL: B1 VL with D1V, F2V, R14S, S28N, N35T, F38L, V90I
notes: murine monoclonal antibody from hybridoma; also called 83C2D4
B4: SN8 (antibody, V domains shown)
VH: EVQLVESGGGLVQPGGSLRLSCAASGYTFSSYWIEWVRQAPGKGLEWIGEILPGGGDTNYNEIFKGRATFSADTSKNTAYLQMNSLRAEDTAVYYCTRRVPIRLDYWGQGTLVTVSS
VL: DIQLTQSPSSLSASVGDRVTITCKASQSVDYEGDSFLNWYQQKPGKAPKLLIYAASNLESGVPSRFSGSGSGTDFTLTISSLQPEDFATYYCQQSNEDPLTFGQGTKVEIKR
B5: humanized antibody hAb015 (antibody, human IgG1, kappa, V domains shown)
VH: EVQLVQSGAEVKKPGSSVKVSCKASGSSFSSYGINWVKQAPGQGLEWIGEIFPRSGNTYYNEKFEGRATLTADKSTSTAYMELRSLRSEDTAVYYCAKGDLGDFDYWGQGTTVTVSS
VL: DFVMTQTPLSLPVTPGEPASISCRSSQSIVHSDGNTYFEWYLQKPGQSPKLLIYKVSNRFSGVPDRFSGSGSGTDFTLKISRVEAEDVGVYYCFQGSHVPWTFGGGTKVEIKR
B6: humanized antibody hAb017 (antibody, human IgG1, kappa, V domains shown)
VH: EVQLVQSGAEVKKPGASVKVSCKASGYTFTTYGINWVKQAPGQGLEWIGEIYPRSGNIYYNEKFKGKATLTADKSTSTAYMELRSLRSDDTAVYYCARGSDYDGDFAYWGQGTLVTVSS
VL: B5 VL with F2V, S32H, F38L, K50Q

Tests used:
[1] = target: T1, human CD79B protein on the surface of …; test: FACS on DOHH2 cells, serial antibody dilutions, anti-mouse IgG Fc-FITC secondary antibody, MFI
Method: 3) FACS detection of anti-human CD79B murine monoclonal antibodies. After centrifugation of the DOHH2 cell suspension, the cells were resuspended in PBS containing 0.1% BSA and counted. 100 μl of antibody diluted to 100 nM (by 1:10) was added and incubated for 1 h at room temperature. After washing the cells for three times, anti-mouse IgG Fc-FITC secondary antibody was added. After 30 min of incubation at room temperature in the dark, the cells were washed for three times and gently resuspended in PBS containing 0.1% BSA for testing on an instrument. Among them, three anti-human CD79B murine monoclonal antibodies had the strongest FACS binding ability, including mAb015, mAb016 and mAb017 (see FIG. 8 for specific data). Among them, hIgG1 was the negative control antibody and SN8 was the positive control antibody. It can be known from the results that in the FACS experiment, the binding ability of the three anti-human CD79B murine monoclonal antibodies mAb015, mAb016 and mAb017 selected preferably by the present disclosure was better than that of SN8.

[2] = target: T2, human CD79B antigen (coating antigen of …); test: ELISA, plate coated with antigen at 1 ug/mL, serial antibody dilutions, OD450
Method: 2) ELISA detection of anti-human CD79B murine monoclonal antibodies. Before the start of the experiment, a 96-well plate was labeled accordingly and coated with an antigen at a concentration of 1 μg/mL, 50 μl per well overnight in a refrigerator at 4° C. The next day, the antigen plate coated the day before was taken out and washed with a plate washer (washing solution: 1×PBST) for once. After washing, the plate was blocked with 1% BSA blocking solution prepared in 1×PBST at 37° C. for 1 h. After washing the plate with 1×PBST washing solution for 3 times, 50 μl of antibody, diluted to 100 nM (by 1:10), were added and incubated in a 37° C. incubator for 1 h. After washing the plate with ×PBST washing solution for 3 times, 100 μl 1:5000 diluted goat-anti-mouse secondary antibody was added and incubated in a 37° C. incubator for 0.5 h. After washing the plate, TMB chromogenic solution A and B were mixed at a 1:1 ratio and then color development was carried out. The development reaction was terminated with 1 N hydrochloric acid after 15 min. The […] at 450 nm were detected on a Spectra Max M5 multi-function plate reader. Among them, three anti-human CD79B murine monoclonal antibodies had the strongest ELISA binding ability, including mAb015, mAb016 and mAb017 (see FIG. 7 for specific data). Among them, hIgG1 was the negative control antibody and SN8 was the positive control antibody. SN8 is the antibody used in the antibody-conjugated drug polatuzumab vedotin developed by Roche Pharmaceuticals (for the sequence, refer to the source of the sequence: US20170362318A). At present, polatuzumab vedotin has been approved by the FDA for marketing. It can be seen from the results that in the ELISA experiment, the binding ability of the three anti-human CD79B murine monoclonal antibodies mAb015, mAb016 and mAb017 selected preferably by the present disclosure was similar to that of SN8.

[3] = target: T1, human CD79B protein on the surface of …; test: FACS, hybridoma culture supernatant on DoHH2 cells
Method: 4) FACS screening. DoHH2 cell suspensions were centrifuged and the cells were resuspended in PBS containing 0.1% BSA and counted. The cell supernatant to be tested was added. After 60 min of incubation at room temperature, the cells were washed for three times and then anti-mouse IgG Fc-FITC secondary antibody was added. After 30 min of incubation at room temperature in the dark, the cells were washed for three times and gently resuspended in PBS containing 0.1% BSA for detection on the instrument.
(§1) 5) Identification of positive hybridoma clones. After fusion and subclone screening of mouse spleen cells, we obtained a number of specific antibodies against human CD79B antigen. Among them, 17 hybridomas with the best ELISA and FACS binding ability were used for antibody production and purification. The FACS detection results of the culture supernatant of anti-human CD79B hybridoma positive clone cells are shown in Table 2. mIgG was used as a negative control in both ELISA and FACS tests.

[4] = target: T2, human CD79B antigen (coating antigen of …); test: ELISA, hybridoma culture supernatant on plate coated with antigen 1 µg/mL
Method: 3) ELISA screening. Before the start of the experiment, a 96-well plate was labeled accordingly and coated with an antigen at a concentration of 1 μg/mL, 50 μl per well overnight in a refrigerator at 4° C. The next day, the antigen plate coated the day before was taken out and washed with a plate washer (washing solution: 1×PBST). After washing, the plate was blocked with 1% BSA blocking solution prepared in 1×PBST at 37° C. for 1 h. After washing the plate with 1×PBST washing solution for 3 times, 50 μl of cell supernatant to be tested were added and incubated in a 37° C. incubator for 1 h. After washing the plate with 1×PBST washing solution for 3 times, 100 μl 1:5000 diluted goat-anti-mouse secondary antibody was added and incubated in a 37° C. incubator for 0.5 h. After washing the plate, TMB chromogenic solution A and B were mixed at a 1:1 ratio and then color development was carried out. The development reaction was terminated with 1 N hydrochloric acid after 15 min. The […] at 450 nm were detected on a Spectra Max M5 multi-function plate reader.
as §1

[5] = target: T1, human CD79B protein on the surface of …; test: FACS on DOHH2 cells, serial antibody dilutions, FITC secondary antibody, MFI
[6] = target: T3, fusion protein of human CD79B …; test: SPR (Biacore 8K; by Example 2 human CD79B-His immobilised on CM5 chip, antibody flowed over)

| Binder | EC50 (read off the curve) [1] [µg/mL] | EC50 (read off the curve) [2] [nM] | Mean fluorescence values [3] [mean fluorescence] | OD450 [4] [OD450] | EC50 (read off the curve) [5] [µg/mL] | Kd [6] [nM] |
| --- | --- | --- | --- | --- | --- | --- |
| B1 | ~0.02 | ~0.1 | 10000 | 3.41 | – | – |
| B2 | ~0.02 | ~0.1 | 8130 | 3.8 | – | – |
| B3 | ~0.02 | ~0.1 | 9990 | 3.46 | – | – |
| B4 | – | – | – | – | ~0.09 | – |
| B5 | – | – | – | – | – | 0.43 |
| B6 | – | – | – | – | – | 3.77 |
